Reference: paper PMC12416549 (2024)

T1: TNFR1 (Homo sapiens, UniProt P19438)
T1 chain: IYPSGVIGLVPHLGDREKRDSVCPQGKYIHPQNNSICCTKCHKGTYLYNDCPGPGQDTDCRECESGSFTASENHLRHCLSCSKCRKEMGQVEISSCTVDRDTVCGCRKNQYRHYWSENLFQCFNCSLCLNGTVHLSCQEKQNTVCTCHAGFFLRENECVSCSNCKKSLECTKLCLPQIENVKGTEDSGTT


Target: T1, TNFR1
Experiment: yeast display SC50

Binder | apparent Kd (screen) [nM]
A28K (designed binder) MTLQELLREEALRRAEAEAFRYALELLKEKFPEQKEYLLDLAEEIESQIRSLSGVDVEDVRKFLDKEWAWVKELLAEHPAELAEVEAARAARLAELRAEVEAKVAA | 10.4
K35C (designed binder) MTLQELLREEALRRAEAEAFRYALELLAEKFPEQCEYLLDLAEEIESQIRSLSGVDVEDVRKFLDKEWAWVKELLAEHPAELAEVEAARAARLAELRAEVEAKVAA | 0.446
E9S (designed binder) MTLQELLRSEALRRAEAEAFRYALELLAEKFPEQKEYLLDLAEEIESQIRSLSGVDVEDVRKFLDKEWAWVKELLAEHPAELAEVEAARAARLAELRAEVEAKVAA | 0.869
L74Q (designed binder) MTLQELLREEALRRAEAEAFRYALELLAEKFPEQKEYLLDLAEEIESQIRSLSGVDVEDVRKFLDKEWAWVKEQLAEHPAELAEVEAARAARLAELRAEVEAKVAA | 1.54
D56S (designed binder) MTLQELLREEALRRAEAEAFRYALELLAEKFPEQKEYLLDLAEEIESQIRSLSGVSVEDVRKFLDKEWAWVKELLAEHPAELAEVEAARAARLAELRAEVEAKVAA | 1.27
L64A (designed binder) MTLQELLREEALRRAEAEAFRYALELLAEKFPEQKEYLLDLAEEIESQIRSLSGVDVEDVRKFADKEWAWVKELLAEHPAELAEVEAARAARLAELRAEVEAKVAA | 13.8
A83Q (designed binder) MTLQELLREEALRRAEAEAFRYALELLAEKFPEQKEYLLDLAEEIESQIRSLSGVDVEDVRKFLDKEWAWVKELLAEHPAELQEVEAARAARLAELRAEVEAKVAA | 0.446
V57P (designed binder) MTLQELLREEALRRAEAEAFRYALELLAEKFPEQKEYLLDLAEEIESQIRSLSGVDPEDVRKFLDKEWAWVKELLAEHPAELAEVEAARAARLAELRAEVEAKVAA | 1.54
P32S (designed binder) MTLQELLREEALRRAEAEAFRYALELLAEKFSEQKEYLLDLAEEIESQIRSLSGVDVEDVRKFLDKEWAWVKELLAEHPAELAEVEAARAARLAELRAEVEAKVAA | 0.49
L52Q (designed binder) MTLQELLREEALRRAEAEAFRYALELLAEKFPEQKEYLLDLAEEIESQIRSQSGVDVEDVRKFLDKEWAWVKELLAEHPAELAEVEAARAARLAELRAEVEAKVAA | 0.539
A88S (designed binder) MTLQELLREEALRRAEAEAFRYALELLAEKFPEQKEYLLDLAEEIESQIRSLSGVDVEDVRKFLDKEWAWVKELLAEHPAELAEVEASRAARLAELRAEVEAKVAA | 0.539
E73M (designed binder) MTLQELLREEALRRAEAEAFRYALELLAEKFPEQKEYLLDLAEEIESQIRSLSGVDVEDVRKFLDKEWAWVKMLLAEHPAELAEVEAARAARLAELRAEVEAKVAA | 0.653
V71W (designed binder) MTLQELLREEALRRAEAEAFRYALELLAEKFPEQKEYLLDLAEEIESQIRSLSGVDVEDVRKFLDKEWAWWKELLAEHPAELAEVEAARAARLAELRAEVEAKVAA | 2.48
E44V (designed binder) MTLQELLREEALRRAEAEAFRYALELLAEKFPEQKEYLLDLAEVIESQIRSLSGVDVEDVRKFLDKEWAWVKELLAEHPAELAEVEAARAARLAELRAEVEAKVAA | 6.43
S53G (designed binder) MTLQELLREEALRRAEAEAFRYALELLAEKFPEQKEYLLDLAEEIESQIRSLGGVDVEDVRKFLDKEWAWVKELLAEHPAELAEVEAARAARLAELRAEVEAKVAA | 2.48
P79T (designed binder) MTLQELLREEALRRAEAEAFRYALELLAEKFPEQKEYLLDLAEEIESQIRSLSGVDVEDVRKFLDKEWAWVKELLAEHTAELAEVEAARAARLAELRAEVEAKVAA | 0.653
K66G (designed binder) MTLQELLREEALRRAEAEAFRYALELLAEKFPEQKEYLLDLAEEIESQIRSLSGVDVEDVRKFLDGEWAWVKELLAEHPAELAEVEAARAARLAELRAEVEAKVAA | 0.539
E44R (designed binder) MTLQELLREEALRRAEAEAFRYALELLAEKFPEQKEYLLDLAERIESQIRSLSGVDVEDVRKFLDKEWAWVKELLAEHPAELAEVEAARAARLAELRAEVEAKVAA | 1.54
E95Y (designed binder) MTLQELLREEALRRAEAEAFRYALELLAEKFPEQKEYLLDLAEEIESQIRSLSGVDVEDVRKFLDKEWAWVKELLAEHPAELAEVEAARAARLAYLRAEVEAKVAA | 0.718
R13S (designed binder) MTLQELLREEALSRAEAEAFRYALELLAEKFPEQKEYLLDLAEEIESQIRSLSGVDVEDVRKFLDKEWAWVKELLAEHPAELAEVEAARAARLAELRAEVEAKVAA | 0.277
P79Q (designed binder) MTLQELLREEALRRAEAEAFRYALELLAEKFPEQKEYLLDLAEEIESQIRSLSGVDVEDVRKFLDKEWAWVKELLAEHQAELAEVEAARAARLAELRAEVEAKVAA | 0.593

Second part, the binder after the results:

apparent Kd (screen) [nM] | Binder
0.539 | D40S (designed binder) MTLQELLREEALRRAEAEAFRYALELLAEKFPEQKEYLLSLAEEIESQIRSLSGVDVEDVRKFLDKEWAWVKELLAEHPAELAEVEAARAARLAELRAEVEAKVAA
0.49 | L82I (designed binder) MTLQELLREEALRRAEAEAFRYALELLAEKFPEQKEYLLDLAEEIESQIRSLSGVDVEDVRKFLDKEWAWVKELLAEHPAEIAEVEAARAARLAELRAEVEAKVAA
0.653 | V104M (designed binder) MTLQELLREEALRRAEAEAFRYALELLAEKFPEQKEYLLDLAEEIESQIRSLSGVDVEDVRKFLDKEWAWVKELLAEHPAELAEVEAARAARLAELRAEVEAKMAA
2.05 | E10W (designed binder) MTLQELLREWALRRAEAEAFRYALELLAEKFPEQKEYLLDLAEEIESQIRSLSGVDVEDVRKFLDKEWAWVKELLAEHPAELAEVEAARAARLAELRAEVEAKVAA
0.539 | L96S (designed binder) MTLQELLREEALRRAEAEAFRYALELLAEKFPEQKEYLLDLAEEIESQIRSLSGVDVEDVRKFLDKEWAWVKELLAEHPAELAEVEAARAARLAESRAEVEAKVAA
0.405 | L24N (designed binder) MTLQELLREEALRRAEAEAFRYANELLAEKFPEQKEYLLDLAEEIESQIRSLSGVDVEDVRKFLDKEWAWVKELLAEHPAELAEVEAARAARLAELRAEVEAKVAA
0.593 | E81V (designed binder) MTLQELLREEALRRAEAEAFRYALELLAEKFPEQKEYLLDLAEEIESQIRSLSGVDVEDVRKFLDKEWAWVKELLAEHPAVLAEVEAARAARLAELRAEVEAKVAA
0.539 | V55I (designed binder) MTLQELLREEALRRAEAEAFRYALELLAEKFPEQKEYLLDLAEEIESQIRSLSGIDVEDVRKFLDKEWAWVKELLAEHPAELAEVEAARAARLAELRAEVEAKVAA
0.593 | A23L (designed binder) MTLQELLREEALRRAEAEAFRYLLELLAEKFPEQKEYLLDLAEEIESQIRSLSGVDVEDVRKFLDKEWAWVKELLAEHPAELAEVEAARAARLAELRAEVEAKVAA
0.539 | E43W (designed binder) MTLQELLREEALRRAEAEAFRYALELLAEKFPEQKEYLLDLAWEIESQIRSLSGVDVEDVRKFLDKEWAWVKELLAEHPAELAEVEAARAARLAELRAEVEAKVAA
11.4 | L38S (designed binder) MTLQELLREEALRRAEAEAFRYALELLAEKFPEQKEYSLDLAEEIESQIRSLSGVDVEDVRKFLDKEWAWVKELLAEHPAELAEVEAARAARLAELRAEVEAKVAA
0.869 | L74Y (designed binder) MTLQELLREEALRRAEAEAFRYALELLAEKFPEQKEYLLDLAEEIESQIRSLSGVDVEDVRKFLDKEWAWVKEYLAEHPAELAEVEAARAARLAELRAEVEAKVAA
0.539 | K30F (designed binder) MTLQELLREEALRRAEAEAFRYALELLAEFFPEQKEYLLDLAEEIESQIRSLSGVDVEDVRKFLDKEWAWVKELLAEHPAELAEVEAARAARLAELRAEVEAKVAA
2.25 | S53E (designed binder) MTLQELLREEALRRAEAEAFRYALELLAEKFPEQKEYLLDLAEEIESQIRSLEGVDVEDVRKFLDKEWAWVKELLAEHPAELAEVEAARAARLAELRAEVEAKVAA
